From patent US10251942B2, “Immunity-inducing agent” (TORAY INDUSTRIES, INC., priority 2009, dated 2019) come the findings set out here.

Where a SMILES comes first, the peptide text is derived from it.

The test system of data set [1] is malignant brain tumor cell line T98G. Put plainly: Chromium 51 release cytotoxicity of peptide-stimulated CD8-positive T cells. As to conditions: 10^5 T cells and 10^3 T98G cells, 4 hours. Format: cell-based, human. The procedure: In a 50-ml centrifuge tube, 10^5 cells of a malignant brain tumor cell line T98G, whose expression of PDS5A had been confirmed (Stein G H et al., J. Cell Physiol., 99: 43-54 (1979), purchased from ATCC), were collected, and 100 μCi of chromium 51 was added to the tube, followed by incubation at 37° C. for 2 hours. […] Thereafter, the amount of chromium 51 released from damaged tumor cells into the culture supernatant was measured, and thereby the cytotoxic activity of the CD8-positive T cells stimulated with each of the polypeptides shown in SEQ ID NOs:27 to 35 was calculated.
The cytotoxic activity was determined by, as described above, mixing 10^5 CD8-positive T cells stimulated and induced with each of the peptides of the present invention and 10^3 cells of a malignant brain tumor cell line T98G to which chromium 51 was incorporated; culturing the resultant for 4 hours; measuring the amount of chromium 51 released into the culture medium after the culturing; and calculating the cytotoxic activity of the CD8-positive T cells against T98G according to the following equation*. cytotoxic activity (%)=(Amount of chromium 51 released from T98G when CD8-positive T cells were added)/(Amount of chromium 51 released from the target cells to which 1N hydrochloric acid was added)×100. *Equation: […]

Data set [2] concerns epidermal squamous cell carcinoma. Nature of the data set: Anti-tumor effect of canine recombinant PDS5A protein in patient dog, epidermal squamous cell carcinoma. The format is in vivo. The settings on record: 500 μg protein with Freund's incomplete adjuvant, subcutaneous near tumor, 4 times at 1-week interval; tumor about 280 mm^3 at administration. How it is done: (§1) With 500 μg (2.5 ml) of the canine recombinant PDS5A protein purified as described in Example 5 below, the same amount of Freund's incomplete adjuvant (manufactured by Wako Pure Chemical Industries, Ltd.) was mixed to prepare a therapeutic agent for cancer, and this therapeutic agent was subcutaneously administered in the vicinity of the tumor in 1 individual each of patient dogs suffering from perianal adenocarcinoma and epidermal squamous cell carcinoma a total of 4 times at 1-week interval.

In data set [3] the test system is mammary gland tumor. Put plainly: Anti-tumor effect of recombinant PDS5A protein in tumor-bearing dog, mammary gland tumor. Format: in vivo. As to conditions: 500 μg protein with same amount of Freund's incomplete adjuvant, regional lymph node near tumor, 3 times at 1-week intervals; tumor about 500 mm^3 (dog-derived) or 1000 mm^3 (human-derived) at administration. The procedure:
The anti-tumor effect of the recombinant protein described in Example 5 below in 3 individuals of tumor-bearing patient dogs (3 individuals having a mammary gland tumor) having a tumor mass in the epidermis was evaluated. Before administration, the antibody titer against the recombinant protein in the serum of each patient dog was measured by the method described in Example 5 (3), and, as a result, an antibody titer higher than that of a healthy dog was detected.
With 500 μg (2.5 ml) each of the recombinant PDS5A proteins (dog-derived and human-derived) purified as described above, the same amount of Freund's incomplete adjuvant (manufactured by Wako Pure Chemical Industries, Ltd.) was mixed to prepare 2 kinds of therapeutic agents for cancer, each of which was administered to a regional lymph node in the vicinity of the tumor a total of 3 times at 1-week intervals. […] On the other hand, in the negative control group to which PBS(−) was administered, the tumor volume, which had been about 800 mm^3 at the time of administration of PBS, became 1625 mm^3 on Day 21 after the administration.

The subject of data set [4] is perianal adenocarcinoma. Put plainly: Anti-tumor effect of canine recombinant PDS5A protein in patient dog, perianal adenocarcinoma. Format: in vivo. As to conditions: 500 μg protein with Freund's incomplete adjuvant, subcutaneous near tumor, 4 times at 1-week interval; tumor about 370 mm^3 at administration. How it is done: as §1

Turning to `CC(C)C[C@H](NC(=O)[C@H](CCCCN)NC(=O)[C@H](Cc1ccc(O)cc1)NC(=O)[C@H](C)NC(=O)[C@H](CO)NC(=O)[C@H](CS)NC(=O)[C@H](CS)NC(=O)[C@H](CCC(N)=O)NC(=O)[C@@H](N)CC(C)C)C(=O)O` [SEQ ID NO:36] (H-LQCCSAYKL-OH), in data set [1], the “cytotoxic activity of stimulated CD8-positive T cells against T98G” value is listed as “no cytotoxic activity”.

B1: canine recombinant PDS5A protein: full-length canine PDS5A (SEQ ID NO:2) expressed in E. coli; given mixed with Freund's incomplete adjuvant (protein, listed as Canis familiaris)
chain: MDFTAQPKPATALCGVVSADGKIAYPPGVKEITDKITTDEMIKRLKMVVKTFMDMDQDSEDEKQQYLPLALHLASEFFLRNPNKDVRLLVACCLADIFRIYAPEAPYTSHDKLKDIFLFITRQLKGLEDTKSPQFNRYFYLLENLAWVKSYNICFELEDCNEIFIQLFRTLFSVINNSHNKKVQMHMLDLMSSIIMEGDGVTQELLDSILINLIPAHKNLNKQSFDLAKVLLKRTVQTIEACIANFFNQVLVLGRSSVSDLSEHVFDLIQELFAIDPHLLLSVMPQLEFKLKSNDGEERLAVVRLLAKLFGSKDSDLATQNRPLWQCFLGRFNDIHVPVRLESVKFASHCLMNHPDLAKDLTEYLKVRSHDPEEAIRHDVIVTIITAAKRDLALVNDQLLGFVRERTLDKRWRVRKEAMMGLAQLYKKYCLHGEAGKEAAEKVSWIKDKLLHIYYQNSIDDKLLVEKIFAQYLVPHNLETEERMKCLYYLYASLDPNAVKALNEMWKCQNMLRSHVRELLDLHKQPTSEANCSAMFGKLMTIAKNLPDPGKAQDFVKKFNQVLGDDEKLRSQLELLISPTCSCKQADVCVREIARKLANPKQPTNPFLEMVKFLLERIAPVHIDSEAISALVKLMNKSIEGTADDEEEGVSPDTAIRSGLELLKVLSFTHPTSFHSAETYESLLQCLRMEDDKVAEAAIQIFRNTGHKIETDLPQIRSTLIPILHQKAKRGTPHQAKQAVHCIHAIFTNKEVQLAQIFEPLSRSLNADVPEQLITPLVSLGHISMLAPDQFASPMKSVVANFIVKDLLMNDRSTGEKNGKLWSPDEEVSPEVLAKVQAIKLLVRWLLGMKNNQSKSANSTLRLLSAMLVSEGDLTEQKRISKSDMSRLRLAAGSAIMKLAQEPCYHEIITPEQFQLCALVINDECYQVRQIFAQKLHKALVKLLLPLEYMAIFALCAKDPVKERRAHARQCLLKNISIRREYIKQNPMATEKLLSLLPEYVVPYMIHLLAHDPDFTRSQDVDQLRDIKECLWFMLEVLMTKNENNSHAFMKKMAENIKLTKDAQSPDESKMNEKLYTVCDVALCVINSKSALCNADSPKDPVLPMKFFTQPEKDFCNDKSYISEETRVLLLTGKPKPAGVLGAVNKPLSATGRKPYVRSTGAETGSNINVNSELNPSTGNRSREQSSEAVETGVSENEENPVRIISVTPVKNIDPVKNKEINSDQTTQGNISSDRGKKRSVAAAGTENIQQKTDEKVDESGPPAPSKPRRGRRPKSESQGNATKNDDINKPLGKGRKRAAVSQESPGGLEAGNAKAPKLQDVAKKAVPAERQIDLQR
modifications: mixed with Freund's incomplete adjuvant
On to B1, for which the “day on which complete regression of the tumor was achieved” value came out at 42 days in data set [2], 13 days in data set [3] and 35 days in data set [4].
